Reference: patent US20160193299A1, “MODIFIED NUCLEOSIDE, NUCLEOTIDE, AND NUCLEIC ACID COMPOSITIONS” (Moderna Therapeutics, Inc., priority 2011, published 2016)

Assays:
[1] = tested on: neutrophil count; experiment: Example 41 intravenous administration of lipoplexed G-CSF mRNA, neutrophil count; type: in vivo; details: mice IV, 10% lipoplex, 50 ug at days 0, 2, 4; day 5
Description: Neutrophils were measured at days 1, 5 and 8. Controls included non-specific mammalian RNA or the formulation buffer alone (F.Buffer). The mice were bled at days 1, 5 and 8 to determine the effect of mRNA-encoded human G-CSF to increase neutrophil count. The dosing regimen is shown in Table 64 as are the resulting neutrophil counts (thousands/uL; K/uL).

[2] = tested on: neutrophils; experiment: Example 22 non-human primate study, neutrophil count; type: in vivo, cynomolgus monkey
Description: LNP formulations, shown in Table 31 (above), were administered to non-human primates (NHP) (cynomolgus monkey) (n=2) as intravenous injection (IV). The NHP were administered a single modified mRNA IV dose of 0.5 mg/kg, 0.05 mg/kg or 0.005 mg/kg of G-CSF or EPO in a dose volume of 0.5 mL/kg. The NHPs were bled before dosing with the modified mRNA LNP formulations to determine protein expression in the serum and a baseline complete blood count. After administration with the G-CSF modified mRNA formulation the NHP were bled at 8, 24, 48 and 72 hours to determined protein expression. After administration with the EPO modified mRNA formulation the NHP were bled at 8, 24, 48, 72 hours and 7 days to determined protein expression.
Samples collected from the NHPs after they were administered with G-CSF or EPO modified mRNA formulations were analyzed by ELISA to determine protein expression. Neutrophil and reticulocyte count was also determined pre-dose, 24 hours, 3 days, 7 days, 14 days and 18 days after administration of the modified G-CSF or EPO formulation.

B1: G-CSF: human G-CSF mRNA SEQ ID NO: 6, polyA ~160 nt, Cap1, fully modified with 5-methylcytosine and pseudouridine (nucleic acid, listed as Homo sapiens)
chain: GGGAAAUAAGAGAGAAAAGAAGAGUAAGAAGAAAUAUAAGAGCCACCAUGGCCGGUCCCGCGACCCAAAGCCCCAUGAAACUUAUGGCCCUGCAGUUGCUGCUUUGGCACUCGGCCCUCUGGACAGUCCAAGAAGCGACUCCUCUCGGACCUGCCUCAUCGUUGCCGCAGUCAUUCCUUUUGAAGUGUCUGGAGCAGGUGCGAAAGAUUCAGGGCGAUGGAGCCGCACUCCAAGAGAAGCUCUGCGCGACAUACAAACUUUGCCAUCCCGAGGAGCUCGUACUGCUCGGGCACAGCUUGGGGAUUCCCUGGGCUCCUCUCUCGUCCUGUCCGUCGCAGGCUUUGCAGUUGGCAGGGUGCCUUUCCCAGCUCCACUCCGGUUUGUUCUUGUAUCAGGGACUGCUGCAAGCCCUUGAGGGAAUCUCGCCAGAAUUGGGCCCGACGCUGGACACGUUGCAGCUCGACGUGGCGGAUUUCGCAACAACCAUCUGGCAGCAGAUGGAGGAACUGGGGAUGGCACCCGCGCUGCAGCCCACGCAGGGGGCAAUGCCGGCCUUUGCGUCCGCGUUUCAGCGCAGGGCGGGUGGAGUCCUCGUAGCGAGCCACCUUCAAUCAUUUUUGGAAGUCUCGUACCGGGUGCUGAGACAUCUUGCGCAGCCGUGAAGCGCUGCCUUCUGCGGGGCUUGCCUUCUGGCCAUGCCCUUCUUCUCUCCCUUGCACCUGUACCUCUUGGUCUUUGAAUAAAGCCUGAGUAGGAAG
modifications: polyA ~160, Cap1, 5mC/pseudouridine modified
increase in neutrophil count above control [1]: four to five fold increase
Neutrophils ([2]; Female NHP, 0.005 mg/kg, 14/18 days): 2.28 10^9/L
Neutrophils ([2]; Female NHP, 0.005 mg/kg, 24 hours): 8.6 10^9/L
Neutrophils ([2]; Female NHP, 0.005 mg/kg, 3 days): 1.78 10^9/L
Neutrophils ([2]; Female NHP, 0.005 mg/kg, 7 days): 2.27 10^9/L
Neutrophils ([2]; Female NHP, 0.005 mg/kg, Pre-dose): 2.54 10^9/L
Neutrophils ([2]; Female NHP, 0.05 mg/kg, 14/18 days): 1.82 10^9/L
Neutrophils ([2]; Female NHP, 0.05 mg/kg, 24 hours): 29.91 10^9/L
Neutrophils ([2]; Female NHP, 0.05 mg/kg, 3 days): 10.77 10^9/L
Neutrophils ([2]; Female NHP, 0.05 mg/kg, 7 days): 3.8 10^9/L
Neutrophils ([2]; Female NHP, 0.05 mg/kg, Pre-dose): 3.05 10^9/L
Neutrophils ([2]; Female NHP, 0.5 mg/kg, 14/18 days): 1.98 10^9/L
Neutrophils ([2]; Female NHP, 0.5 mg/kg, 24 hours): 13.96 10^9/L
Neutrophils ([2]; Female NHP, 0.5 mg/kg, 3 days): 13.7 10^9/L
Neutrophils ([2]; Female NHP, 0.5 mg/kg, 7 days): 3.81 10^9/L
Neutrophils ([2]; Female NHP, 0.5 mg/kg, Pre-dose): 1.27 10^9/L
Neutrophils ([2]; Male NHP, 0.005 mg/kg, 14/18 days): 4.31 10^9/L
Neutrophils ([2]; Male NHP, 0.005 mg/kg, 24 hours): 16.44 10^9/L
Neutrophils ([2]; Male NHP, 0.005 mg/kg, 3 days): 3.74 10^9/L
Neutrophils ([2]; Male NHP, 0.005 mg/kg, 7 days): 7.28 10^9/L
Neutrophils ([2]; Male NHP, 0.005 mg/kg, Pre-dose): 1.52 10^9/L
Neutrophils ([2]; Male NHP, 0.05 mg/kg, 14/18 days): 3.59 10^9/L
Neutrophils ([2]; Male NHP, 0.05 mg/kg, 24 hours): 19.92 10^9/L
Neutrophils ([2]; Male NHP, 0.05 mg/kg, 3 days): 7.49 10^9/L
Neutrophils ([2]; Male NHP, 0.05 mg/kg, 7 days): 4.13 10^9/L
Neutrophils ([2]; Male NHP, 0.05 mg/kg, Pre-dose): 13.74 10^9/L
Neutrophils ([2]; Male NHP, 0.5 mg/kg, 14/18 days): 2.58 10^9/L
Neutrophils ([2]; Male NHP, 0.5 mg/kg, 24 hours): 14.92 10^9/L
Neutrophils ([2]; Male NHP, 0.5 mg/kg, 3 days): 9.76 10^9/L
Neutrophils ([2]; Male NHP, 0.5 mg/kg, 7 days): 2.74 10^9/L
Neutrophils ([2]; Male NHP, 0.5 mg/kg, Pre-dose): 1.53 10^9/L
neutrophils relative to pre-dose levels ([2]; NHP, all G-CSF groups): increase in neutrophils
